One molecule from patent US9151744B2, “Lung tissue model” (Pécsi Tudományegyetem, priority 2009, dated 2015) can be followed below.

Assay [1] relates to SAEC-NHLF lung micro-tissue. The assay can be described thus: Wnt11 treatment of 3D SAEC-NHLF lung micro-tissue: marker expression (qRT-PCR, PCR, immunofluorescence). It counts as cell-based, human. The conditions noted are these: for AQP3 expression / E-cadherin expression / N-cadherin expression (EMT marker) / S100A4 expression (EMT marker) / SLUG expression (EMT marker): 3D cultures, Wnt11 SN vs control SN, mRNA in sorted lung epithelium; for pro-SFTPC protein expression: immunofluorescence, 3D micro-tissue, 72 hours, vs control SN. Here is the method:
(§1) Primary SAEC, NHLF and pulmonary HMVEC cells were purchased from Lonza. All cell types were isolated from the lungs of multiple random donors of different sexes and ages. We used SAGM, FGM or EGM-2 medium for the initial expansion of SAEC, NHLF or pulmonary HMVEC, respectively, as recommended by the manufacturer. All types of cell cultures were incubated in an atmosphere containing 5% CO2, at 37° C. For 2D and 3D culturing, pure or mixed cell populations were cultured in a 50-50% mixture of SAGM (Small Airway Growth Medium, Lonza) and complete DMEM. For two and three-cell cultures containing HMVEC cells, the appropriate growth factor supplements for HMVEC cells were added to the 50-50% mixture of SAGM and DMEM. The compositions of cell culture media were prepared in accordance with instructions of the manufacturer. For 2D and 3D culturing, cells were mixed at the indicated ratios and dispensed onto flat-bottom 6 well plates or 96-well V-bottom plates (Sarstedt), respectively. V-bottom plates were immediately centrifuged after cell seeding at 600×g for 10 minutes at room temperature.
SAEC and NHLF were stained with CFSE and DiI according to manufacturers instructions (Molecular probes). Cells were mixed and cultured for 72 hours in 2D and 3D systems. Stained cells were dissociated by mild trypsin treatment followed by PBS+EDTA treatment. Dissociated cells were sorted using a BD FACSVantage cell sorter into tubes with lysis buffer for mRNA preparation (Miltenyi Biotech).
After culturing cells in 3D for 3 days, micro-tissues were carefully removed from the V-bottom plates and fixed in 4% formaline for 10 minutes at room temperature. Fixed samples were covered with TissueTech cryostate embedding medium and 8 μm thick frozen sections were made. Sections were permeabilized in PBS buffer containing 0.1% saponine and 5% BSA for 30 minutes. Primary and secondary antibodies were diluted in the same buffer and incubated with the samples for 1-1 hour. Fluorescent images were acquired using an Olympus IX-81 fluorescent microscope. To ensure the comparability of expression levels of SFTPC, AQP3 and N-cad in Wnt11-SN— or Wnt11 siRNA-treated samples to their matched untreated controls, all images were captured with the same exposition settings.
Retroviral infection. Retroviral supernatants were generated from retroviral vectors containing Wnt11-GFP, or green fluorescence protein (GFP) only, in 293 cells. Epithelial cell line A549 was transformed using the above viruses in 24-well-plates, in 250 μl of viral supernatant and 50 μl of DMEM polybrene mix (final conc.: 8 μg/ml)/well, and then centrifuged for 60 min at 2100 rpm at room temperature. The cells were incubated for 3 days in fresh DMEM containing 10% FCS, then sorted based on GFP expression using FACSVantage cell sorter (BD Biosciences). GFP positive cells were then cultured as described above. The presence of Wnt11 protein were verified by immunoblotting and immunofluorescence using Wnt11 specific polyclonal antibody (AbCam) (FIG. 7).
All samples were set up in duplicates. Briefly, Ct values were determined for each sample using an automatic threshold level determined by the 7500 System SDS Software. Delta Ct (dCt) values were determined according to the following formula: dCt(target gene)=Ct(target gene)−Ct(housekeeping gene). Changes in gene expression are shown as RQ values calculated using the next formula: RQ=2^−ddCt, where ddCt values were calculated as ddCt=dCt(sample)−dCt(reference sample).
For orientation: In qPCR the cycle at which signal appears reflects the starting amount.

The test system of assay [2] is SAEC-NHLF lung micro-tissue. Briefly: Wnt11 SN treatment of 3D lung micro-tissue: haematoxilin-eosin morphology. It is filed as cell-based, human. As to conditions: 3D micro-tissue, 72 hours, vs control A549 SN. Here is the method:
as §1
Retroviral infection. Retroviral supernatants were generated from retroviral vectors containing Wnt11-GFP, or green fluorescence protein (GFP) only, in 293 cells. […]

B1: Wnt11: Wnt11 protein, applied as supernatant (SN) of A549 cells transfected with lentiviral full-length Wnt11-IRES-GFP construct (protein, UniProt O96014 1-354, looked up)
chain: MRARPQVCEALLFALALQTGVCYGIKWLALSKTPSALALNQTQHCKQLEGLVSAQVQLCRSNLELMHTVVHAAREVMKACRRAFADMRWNCSSIELAPNYLLDLERGTRESAFVYALSAAAISHAIARACTSGDLPGCSCGPVPGEPPGPGNRWGGCADNLSYGLLMGAKFSDAPMKVKKTGSQANKLMRLHNSEVGRQALRASLEMKCKCHGVSGSCSIRTCWKGLQELQDVAADLKTRYLSATKVVHRPMGTRKHLVPKDLDIRPVKDSELVYLQSSPDFCMKNEKVGSHGTQDRQCNKTSNGSDSCDLMCCGRGYNPYTDRVVERCHCKYHWCCYVTCRRCERTVERYVCK
modifications: full-length
notes: Wnt11 protein, applied as supernatant (SN) of A549 cells transfected with lentiviral full-length Wnt11-IRES-GFP construct
Consider B1, for which, in assay [1], the AQP3 expression result is listed as “up-regulation”, the E-cadherin expression result is “up-regulation”, the “N-cadherin expression (EMT marker)” value is reported as “down-regulation” and the “S100A4 expression (EMT marker)” value was “down-regulation”. In addition, in assay [1], the “SLUG expression (EMT marker)” value is given as “down-regulation” and the pro-SFTPC protein expression result is reported as “radical increase”. In assay [1] (listed as Wnt11 SN), the AQP3 expression entry is recorded as “increased”, the E-cadherin expression result is reported as “increased”, the “N-cadherin expression (EMT marker)” value is “decreased” and the “S100A4 expression (EMT marker)” value is “decreased”. In assay [1] (listed as Wnt11 SN), the “SLUG expression (EMT marker)” value is listed as “decreased” and the pro-SFTPC protein expression entry is on record as “dramatic increase”. For the same molecule, the “SFTPA mRNA levels” value in assay [1] (PCR, Wnt11 treated cultures vs untreated control) is “significant increase”. Moreover, the “surfactant expression (ATII type differentiation of alveolar epithelium)” value in assay [1] (all studied culture conditions, in the presence of fibroblasts) is “drastic boost”. For the same molecule, the “epithelial cell morphology (HE staining)” value in assay [2] is listed as “increased number of cells with cuboid-like morphology”.
